Consider one substance from paper doi:10.1101/2025.11.26.690765.

pKd: −log10 of the molar value.

The target in this experiment is 4-1BB (Acro) (Homo sapiens (assumed)) (UniProt Q07011). As to the kind of experiment: SPR.

As for “Urelumab, variable domains in human IgG1 expression vectors (antibody)”, the negative logarithm of the Kd (pKd) – broadly, the negative decadic logarithm of the Kd, by convention in mol/L – is 8.10.
